Data: PMC5599508

Key:
[1] = biological target: T15 peptide derived from the human α-tubulin αK40 loop (human)
[2] = biological target: T9 peptide derived from the human α-tubulin αK40 loop (human)
[3] = biological target: free alpha/beta-tubulin dimers from porcine brain (pig (purified from porcine brain)) (UniProt P02550)
Sequence of UniProt P02550 (P02550 whole entry, chain 1 of 2): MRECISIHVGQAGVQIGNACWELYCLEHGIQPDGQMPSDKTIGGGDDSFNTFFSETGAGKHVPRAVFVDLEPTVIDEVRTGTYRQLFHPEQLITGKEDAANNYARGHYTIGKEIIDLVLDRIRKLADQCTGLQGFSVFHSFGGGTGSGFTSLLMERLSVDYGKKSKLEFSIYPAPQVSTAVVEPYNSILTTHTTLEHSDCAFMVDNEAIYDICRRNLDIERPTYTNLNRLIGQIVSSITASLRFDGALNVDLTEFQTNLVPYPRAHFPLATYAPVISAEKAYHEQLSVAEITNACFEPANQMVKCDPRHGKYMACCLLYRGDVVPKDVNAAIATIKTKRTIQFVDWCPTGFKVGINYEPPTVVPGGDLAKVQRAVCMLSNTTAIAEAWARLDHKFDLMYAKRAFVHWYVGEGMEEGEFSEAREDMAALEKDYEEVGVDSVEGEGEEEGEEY
Sequence of UniProt P02550 (P02554 whole entry, chain 2 of 2, further chain): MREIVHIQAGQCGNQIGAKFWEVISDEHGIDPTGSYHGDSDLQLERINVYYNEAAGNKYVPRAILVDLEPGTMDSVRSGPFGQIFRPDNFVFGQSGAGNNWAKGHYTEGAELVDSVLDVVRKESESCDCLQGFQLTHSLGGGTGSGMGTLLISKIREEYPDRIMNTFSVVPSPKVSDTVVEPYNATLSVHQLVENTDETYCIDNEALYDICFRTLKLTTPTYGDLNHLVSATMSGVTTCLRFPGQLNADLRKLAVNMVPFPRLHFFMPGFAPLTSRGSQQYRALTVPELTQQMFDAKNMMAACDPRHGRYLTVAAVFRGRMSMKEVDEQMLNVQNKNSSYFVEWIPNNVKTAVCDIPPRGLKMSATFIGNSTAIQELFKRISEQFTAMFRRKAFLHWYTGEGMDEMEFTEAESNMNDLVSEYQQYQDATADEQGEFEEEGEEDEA

KM of the deacetylation of the acetylated αK40-derived peptide by HDAC6 (HPLC-based assay) [1]: 328 µM | KM of the deacetylation of the acetylated αK40-derived peptide by HDAC6 (HPLC-based assay) [2]: 88 µM | KM of the deacetylation of free tubulin dimers by HDAC6 (steady-state kinetics, Western blot quantification) [3]: 0.23 µM
Substance: untagged full-length human histone deacetylase 6 (from UniProt Q9UBN7-1 1-1215) (enzyme)
